From paper PMC9905591, “A single point mutation expands the applicability of ostreolysin A6 in biomedicine” (Scientific Reports, 2023)

Target: T1, Ostreolysin A6 (Pleurotus ostreatus, UniProt P83467 1-138)
T1 sequence: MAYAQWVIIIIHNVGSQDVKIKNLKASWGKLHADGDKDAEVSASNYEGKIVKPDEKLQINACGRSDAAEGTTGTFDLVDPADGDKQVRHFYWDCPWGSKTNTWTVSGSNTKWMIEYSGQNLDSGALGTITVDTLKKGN
Assay: cell-based or functional assay

B1: Δ48PlyB (pleurotolysin B) (domain or fragment, Pleurotus ostreatus, UniProt Q5W9E8 49-523, looked up)
chain: SQAGDTLNDVIQDPTRRNKLINDNNLLKGIIMGRDGPVPSSRELIVRPDTLRAIINNRATIETTTMEAEFTETLMESNYNSASVKVSAPFITANSEYSESSSFKNTETEKSMYTSSRYLFPQGRIDFTTPDSGFDDVIKLSPQFTSGVQAALAKATGTEKREALQNLFQEYGHVFRTKVHIGGVLSAHTMETFSRSENETEVKQDVKAGLEGAVKGWGGGATAGHGNTQGTITTSQNRKLNVKYIVNGGDYTKIQNTEEWVASTNQSEHWRVIEVTEVTAVADLLPQPIRGQVKDLLKPLLGKWVDVEKVPGLESLPVSVYRPKGAIPAGWFWLGDTADASKALLVKPTLPARSGRNPALTSLHQGSGMTEQPFVDLPQYQYLSTYFGSFAHDTPPGSTLRGLRPDHVLPGRYEMHGDTISTAVYVTRPVDVPFPEDECFDLKSLVRVKLPGSGNPPKPRSALKKSMVLFDSGEK
  hazard ratio against buffer, Kaplan-Meier survival of Colorado potato beetle larvae on OlyA6/PlyB-treated leaf discs: 3.5
